Measured values taken from patent US20170313762A1.

Biological target: vasopressin V2 receptor-RlucII (hV2R wt-RlucII) (human)
Test: cell-based or functional assay

Oxytocin (from UniProt P01178 20-28) (peptide)
EC50 of agonist-promoted receptor internalization (decrease of BRET between receptor-RlucII and lyn-rGFP): 2200 nM
